These results are taken from the supplement of paper PMC9112550, “Optimization of the antimicrobial peptide Bac7 by deep mutational scanning” (BMC Biology, 2022).
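Also: peptides expressed intracellularly from a pBAD plasmid library in pooled LB shake-flask culture, induced with 0.3% L-arabinose, DNA abundance read by NGS, three biological replicates, DESeq2 with apeglm shrinkage.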

This data set concerns Escherichia coli TOP10. The experiment in a line: shrunken log2 fold change of peptide-encoding DNA abundance (4.5 h post-induction vs induction); higher = less antimicrobial activity (less host growth inhibition). The conditions noted are these: time post-induction: 4.5 h; library: site-saturation at positions 5, 18, 19, 20.
Regarding RRIRWRPPRLPRPRPRPVVQPRP, the “shrunken log2 fold change” value is -0.131.
Consider RRIRYRPPRLPRPRPRPFYIPRP, for which the “shrunken log2 fold change” value is -1.26.
As for RRIRIRPPRLPRPRPRPCYFPRP, the “shrunken log2 fold change” value was -0.906.
As to RRIRRRPPRLPRPRPRPMRPPRP, the “shrunken log2 fold change” value was found to be 0.66.
For the sequence RRIRFRPPRLPRPRPRPGDCPRP, the “shrunken log2 fold change” value is -0.0759.
Consider RRIRPRPPRLPRPRPRPEGRPRP, for which the “shrunken log2 fold change” value was 0.545.
As for RRIRFRPPRLPRPRPRPPKFPRP, the figure is 0.0968; as for RRIRARPPRLPRPRPRPTRIPRP, 2.82.
Consider RRIRRRPPRLPRPRPRPLWTPRP, for which the “shrunken log2 fold change” value turned out to be 0.129.
In the case of RRIRSRPPRLPRPRPRPGFCPRP, the “shrunken log2 fold change” value was found to be 0.108.
RRIRGRPPRLPRPRPRPCESPRP: the “shrunken log2 fold change” value is 0.169.
Take RRIRWRPPRLPRPRPRPQRHPRP: the “shrunken log2 fold change” value was 0.163.
In the case of RRIRFRPPRLPRPRPRPLRVPRP, the “shrunken log2 fold change” value is -0.108.
Take RRIRNRPPRLPRPRPRPLWIPRP: the “shrunken log2 fold change” value was -0.286.
The value for RRIRCRPPRLPRPRPRPMEEPRP was 0.0671.
RRIRDRPPRLPRPRPRPTHYPRP: the “shrunken log2 fold change” value was -0.103.
As to RRIRCRPPRLPRPRPRPPMGPRP, the “shrunken log2 fold change” value was found to be 0.155.
RRIRIRPPRLPRPRPRPQRIPRP: the “shrunken log2 fold change” value was -0.536.
The value for RRIRERPPRLPRPRPRPQASPRP was -0.328; that for RRIRQRPPRLPRPRPRPNRVPRP was -0.107; that for RRIRPRPPRLPRPRPRPPMEPRP was 0.127.
For the sequence RRIRCRPPRLPRPRPRPDQDPRP, the “shrunken log2 fold change” value was 0.0433.
As for RRIRCRPPRLPRPRPRPFMSPRP, the “shrunken log2 fold change” value is 0.0579.
Regarding RRIRERPPRLPRPRPRPMGIPRP, the “shrunken log2 fold change” value was -0.113.
As for RRIRDRPPRLPRPRPRPELCPRP, the figure is -0.0337.
As to RRIRVRPPRLPRPRPRPAQQPRP, the “shrunken log2 fold change” value was determined as 0.375.
For RRIRYRPPRLPRPRPRPHIHPRP, the “shrunken log2 fold change” value was -0.745.
On to RRIRMRPPRLPRPRPRPKTFPRP, for which the “shrunken log2 fold change” value came to 0.0371.
As to RRIRNRPPRLPRPRPRPSCRPRP, the “shrunken log2 fold change” value worked out at 0.0168.
For RRIRPRPPRLPRPRPRPVRIPRP, the “shrunken log2 fold change” value was 0.0103.
The value for RRIRFRPPRLPRPRPRPDEQPRP was 0.00595.
Take RRIRERPPRLPRPRPRPHQQPRP: the “shrunken log2 fold change” value worked out at 0.119.
As for RRIRPRPPRLPRPRPRPFNMPRP, the “shrunken log2 fold change” value was -0.949.
With RRIRARPPRLPRPRPRPFECPRP, the “shrunken log2 fold change” value was -0.00737.
The value for RRIRQRPPRLPRPRPRPRQFPRP was -0.121; that for RRIRHRPPRLPRPRPRPGRYPRP was -0.017; that for RRIRSRPPRLPRPRPRPIKNPRP was -0.399.
For RRIRKRPPRLPRPRPRPWRDPRP, the “shrunken log2 fold change” value worked out at 0.188.
For the sequence RRIRHRPPRLPRPRPRPWFCPRP, the “shrunken log2 fold change” value was -0.583.
For RRIRWRPPRLPRPRPRPCNDPRP, the “shrunken log2 fold change” value was -0.172.
With RRIRHRPPRLPRPRPRPQMEPRP, the “shrunken log2 fold change” value is -0.00192.
Take RRIRHRPPRLPRPRPRPIQPPRP: the “shrunken log2 fold change” value is 0.0532.
On to RRIRDRPPRLPRPRPRPRYRPRP, for which the “shrunken log2 fold change” value was -0.101.
As to RRIRERPPRLPRPRPRPMVLPRP, the “shrunken log2 fold change” value was found to be 0.104.
As to RRIRERPPRLPRPRPRPIIAPRP, the “shrunken log2 fold change” value was -0.106.
Consider RRIRHRPPRLPRPRPRPRVMPRP, for which the “shrunken log2 fold change” value came out at 0.0966.
As for RRIRTRPPRLPRPRPRPWNCPRP, the “shrunken log2 fold change” value is -0.214.
Take RRIRERPPRLPRPRPRPNSIPRP: the “shrunken log2 fold change” value is -0.317.
As for RRIRVRPPRLPRPRPRPSTGPRP, the “shrunken log2 fold change” value is -0.00698.
For the sequence RRIRMRPPRLPRPRPRPECFPRP, the “shrunken log2 fold change” value was determined as 1.35.
